Biological target: far-red light-acclimated photosystem I (FRL-PSI) complex of Synechococcus sp. PCC 7335, trimeric (Synechococcus sp. PCC 7335 (endogenous in Synechococcus 7335 cells))
Test: cryo-EM structure; trimeric FRL-PSI isolated whole from FRL-grown Synechococcus 7335 cells (1% β-DM, two sucrose gradients, PIB: 50 mM MES pH 6.5, 15 mM CaCl2, 10 mM MgCl2); Fd not added; ~3 mg Chl/ml, plunge-frozen at 4 °C; C3 symmetry, 2.91 Å

stoichiometry N	occupancy [%]	Substance
3		far-red light-acclimated photosystem I (FRL-PSI) complex of Synechococcus sp. PCC 7335, trimeric
	10	ferredoxin PetF1 (soluble [2Fe-2S] ferredoxin) of Synechococcus sp. PCC 7335 (natural protein)
